Test system: pentapeptide DYDYQ (Asp695-Tyr696-Asp697-Tyr698-Gln699 of human factor Va heavy chain)

With human thrombin the “activation of factor V by thrombin (cleavage at Arg709), SDS-PAGE and immunoblot, thrombin preincubated with 100 µM peptide” value was “the pentapeptide is a potent inhibitor of factor V activation by thrombin”.
